Assay results published in article PMC8345336.
Read-outs that look alike come from different tables or passages of the source.

Assays:
[1] = target: soluble methane monooxygenase hydroxylase component (sMMOH), (αβγ)2, from Methylosinus trichosporium OB3b (Methylosinus trichosporium OB3b) (UniProt P27353); experiment: NMR titration
[2] = target: soluble methane monooxygenase hydroxylase component (sMMOH), (αβγ)2, from Methylosinus trichosporium OB3b (Methylosinus trichosporium OB3b) (UniProt P27353); experiment: NMR titration; remark: listed apart in the source
[3] = target: soluble methane monooxygenase hydroxylase component (sMMOH), (αβγ)2, from Methylosinus trichosporium OB3b (Methylosinus trichosporium OB3b) (UniProt P27353); experiment: NMR titration; remark: listed apart in the source
[4] = target: MMOB (Methylococcus capsulatus) (UniProt P18797); conditions: cited from earlier work
[5] = target: MMOR (Methylococcus capsulatus) (UniProt P22868); conditions: cited from earlier work
[6] = target: MMOB (Methylosinus trichosporium) (UniProt P27356); experiment: fluorescence quenching; conditions: cited from earlier work
[7] = target: MMOR (Methylosinus trichosporium) (UniProt Q53563); conditions: cited from earlier work

methane monooxygenase reductase component (MMOR), unlabelled (from UniProt Q53563 1-340) (enzyme)
half dissociation value [1]: 13.7 µM | Kd [2]: 60 nM | half dissociation value [2]: 9.1 µM | Kd [3]: 90 nM

sMMOH (diferric) (from UniProt P22869)
Kd [4]: 550 nM | Kd [5]: 900 nM

sMMOH (diferric) (from UniProt P27353)
Kd [6]: 68 nM | Kd [7]: 10 nM
